Measurements: the nanobody polyreactivity screen of Harvey et al. (2022)

Test: yeast display, Sf9 membrane polyspecificity reagent, FACS + sequencing; frameworks hold sequencing errors
Outline: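 Genes from sorted yeast were amplified by colony PCR, read by MiSeq 2 × 250 sequencing and filtered on CDR length. These cells carried a synthetic nanobody library in Saccharomyces cerevisiae BJ5465 and were sorted by FACS into low and high (top ~1%) gates on anti-HA and streptavidin fluorescence. Polyreactivity is labelled according to the gate of origin.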

Row | Sequence | polyreactivity (PSR sort gate)
1 | QVQLVESGGGLVQAGGSLRLSCAASGGIFVIYAMGWYRQAPGKERELVAAITWGGGTTYYADSVKGRFTISRDNAKNTVYLQMNSLNPEDTAVYYCNADGFVYGWYYYYEGYDYWGQGTQVTVSS | low polyreactivity
2 | QVQLVESGGGLVQAGGSLRLSCAASGGIFVPNDMGWYRQAPGKERELVAAIRDGGSTNYADSVKGRFTISRDNAKNTVYLQMNSLKPEDTAVYYCAADYSLALAKYDYWGQGTQVTVSS | low polyreactivity
3 | QVQLVESGGGLVQAGGSLRLSCAASGGIFVTYTMGWYRQAPGKERELVAGINSRSGSTYADSVKGRFTISRDNAKNTVYLQMNSLKLEDTAVYYCAADRIDLGRASRYGYWGQGTQVTVSS | low polyreactivity
4 | QVQLVESGGGLVQAGGSLRLSCAASGGIFWNYAMGWYRQAPGKERELVAVINTGGRTYYADSVKGRFTISRDNAKYTVYLQMNSLKPEDTAVYYCAAKDFTIHYDYWGQGTQVTVSS | high polyreactivity
5 | QVQLVESGGGLVQAGGSLRLSCAASGGIFYDNAMGWYRQARGKEWELVAAINWSGGSTYYADSVKGRFTISRDNAKNTVYLQMNSLKPDDTAVYYCAASRYFYRTYWNFYGMDYSGQGTQVTVSS | high polyreactivity
6 | QVQLVESGGGLVQAGGSLRLSCAASGGIFYFNAMGWYRQAPGKERELVASITWSGGNTYYADSVKGRFTISRDNAKNTVYLQMNSLKPEDTAVYDCAADTQEYRPTYDYWGQGTQVTVSS | low polyreactivity
7 | QVQLVESGGGLVQAGGSLRLSCAASGGIFYGNVMGWYRQAPGKERQLVADITSVGSTYYADSVKGRFTFSRDNAKYTVYIQMNSLKPEDTAVYYCAAEPDHVAESHSGYDYWGQGTLVTVSS | low polyreactivity
8 | QVQLVESGGGLVQAGGSLRLSCAASGGIFYTYAMGWSRQAPGKERELVAAISARGGSTYYADSVKGRFTISRDIAKNTVYLQMNSLKPDDTAVYYCAAETYILLEYDYWGQGTQVTVSS | high polyreactivity
9 | QVQLVESGGGLVQAGGSLRLSCAASGGISSSNAMGGYRQAPGKERELVAGINSRGGSTYADSVKGRFTISRDNAKNTVYLQMKSLKPEDTAVYYCAAAPTYKWRRKNYDYWGQGTQVTVSS | high polyreactivity
10 | QVQLVESGGGLVQAGGSLRLSCAASGGNFERNAMGWYRQAPGKERELVAAITGSGGRTYYADSVKGRFTISRDNAKITVYLQMNSLKPEDTAVYFCAAVPWWKYKYWGQGTQVTVSS | high polyreactivity
11 | QVQLVESGGGLVQAGGSLRLSCAASGGNFGTNDMGWYRQAPGKERELVAAITSDSGSTYYADSVKGRFTISRDNAKNTVYLQMNSLKPEDTAVYYCAAEDGPWFYRYGYWGQGTQVTVSS | low polyreactivity
12 | QVQLVESGGGLVQAGGSLRLSCAASGGNLPYNVMGRYRQAPGKEWELVAAITSGVNTNYADSVKGRFTISRDNAKNTVYLQMNSLKPEDTAVYYCAARSGGPSDGSGYWGQGTQVTVSS | low polyreactivity
13 | QVQLVESGGGLVQAGGSLRLSCAASGGSFYNYPMGWYRQAPGKERELVAAITYSGVRTNYADSVKGRFTISRDNAKNTVYLQMNSLKPEDTAVYYCAADGLSNVRQMDYWGQGTQVTVSS | low polyreactivity
14 | QVQLVESGGGLVQAGGSLRLSCAASGGTFAPNAMGWYRQAPGKEREFVAAITISGGSTYYADSVKGRFTISRDNAKNTVYLQMNSLKPEDTAVYYCAADYYAWDTYQWYDYWGQGTQVTVSS | high polyreactivity
15 | QVQLVESGGGLVQAGGSLRLSCAASGGTFARYAMGWYRQAPGKERELVAAITRSGGTTYYADSVKGRFTISRDNAKNTVYLQMNSLKPEDTAVYYCAALPIVDYYGYGYWGQGTQVTVSS | high polyreactivity
16 | QVQLVESGGGLVQAGGSLRLSCAASGGTFAVYAMGWYRQAPGKEREWVAAIDSGGRTNYADSVKGRFTISRDNAKNTVYLQMNSLKPEDTAVYYCAADGGGQYVRYDYWGQGTQVTVSS | high polyreactivity
17 | QVQLVESGGGLVQAGGSLRLSCAASGGTFAWYAMGWYRQAPGKERELVAAITSDGITKYADSVKGRFTISRDNAKNTVYLQMNSLKPEDTAVYYCAKDDGPSDWIGRWFDYWGQGTQVTVSS | low polyreactivity
18 | QVQLVESGGGLVQAGGSLRLSCAASGGTFDDYAMGWYRQAPGKERELVAAISSSGGSTYYADSVKGRITISRDNAKNTVYLEMNSLKPDDTAVYYCAVDAFWRHWYYPYESHHDYWGQGTQVTVSS | low polyreactivity
19 | QVQLVESGGGLVQAGGSLRLSCAASGGTFDWNPMGWYRQAPGKERELVASITSGGRTNYADSVKGRFTISRDNAKNTVYLQMNSLKPEDTAVSYCAKYRRSAYPWQTWVGQKFDYWGQGTHVTVSS | low polyreactivity
20 | QVQLVESGGGLVQAGGSLRLSCAASGGTFDWNTMGWYRQAPGKERELVASITSGGRTNYADSVKGRFTISRDNAKNTVYLQMNSLKPEDTAVYYCAIYRRSAYPWQTWVGQKFDYWGQGTQVTVSS | low polyreactivity
21 | QVQLVESGGGLVQAGGSLRLSCAASGGTFEYNAMGWYRQAPGKERELVAAISKSGGRTYYADSVKGRFTISRDNAKNTVYLQMNSLKPEDTAVYYCAKRYVWGQGTQVTVSS | high polyreactivity
22 | QVQLVESGGGLVQAGGSLRLSCAASGGTFFGYAMGWYRQAPGKERELVAAISGSGGRTYYADSVKARFTISRDNAKNTVYLQMNSLKPEDTAVYYCAADATHETYYPFYYWGQGTQVTVSS | high polyreactivity

Row | Sequence | polyreactivity (PSR sort gate)
23 | QVQLVESGGGLVQAGGSLRLSCAASGGTFGAYAMGWYRPAPGKERELVAAISGSGARTYYADSVKGRFTISRDNAKNTVYLQMNSLKPEDTAVYYCAARSTGTRVGEYDYWGQGTQVTVSS | high polyreactivity
24 | QVQLVESGGGLVQAGGSLRLSCAASGGTFGINDMGWYRQAPGKERDLVAAISWSGGDTYYADSVKGRFTISRDNAKNTVYLQRNSLKPEDTAVYYCAADYHYTKSMYYWGQGTQVSVSS | low polyreactivity
25 | QVQLVESGGGLVQAGGSLRLSCAASGGTFGKYTMGWSRQAPGKERELVAAINKSGGSTYYADSVKGRFTISRDNAKNTVYLQMNSLKPEDTAVYYCAAGTYFLSREYNYWGQGTQVTVSS | low polyreactivity
26 | QVQLVESGGGLVQAGGSLRLSCAASGGTFGLNAMGWSRLAPGKARELVADIDGRGGSTYYADSVKGRFTISRDNSKNTVYLQMNSRNPEDTAVYYCAARAPFLSVPSELDYWGQCTQVTVSS | low polyreactivity
27 | QVQLVESGGGLVQAGGSLRLSCAASGGTFGNYAMGWYRQAPGKERELVAAISTRGGSTYYADSVKGRFTISCDNAKNTVYLQMNSLKPEDTAVYYCNARIKRPRGVYGGDYWGQGTQVTVSS | high polyreactivity
28 | QVQLVESGGGLVQAGGSLRLSCAASGGTFGRYAMGWYRQAPGKERELVASITTGGRTNYADSVKGRFTISRDNAKNTVYLQMNSLKPEDTAVYYCAKKRYGYPLPFYYWGQGTQVTVSS | high polyreactivity
29 | QVQLVESGGGLVQAGGSLRLSCAASGGTFGSYAMGWYRQAPAKERELVAAIRSGDRTYYADSVKGRFTISRDNAKNTDYLQMNSLKPEHTAVDYCAAFYHHYYRYDYWGQGTQVTVSS | low polyreactivity
30 | QVQLVESGGGLVQAGGSLRLSCAASGGTFGVNAMGWYRQAPGKERELVAAISSSGGRTYYADSVKGRFTISRDNAKNTVYLQVNSLKPEDTAVYYCAARNYFWGQGTQVTVSS | low polyreactivity
31 | QVQLVESGGGLVQAGGSLRLSCAASGGTFGVYAMGWYRQAPGKERELVAAIDWDDGNTYYADSVKGRFTLSRDNAKNTVYLQMNSLKPEDTAVYYCAAVVFSRRYWVKFYYWGQGTQVTVSS | high polyreactivity
32 | QVQLVESGGGLVQAGGSLRLSCAASGGTFGYNAMGWYRQAPGKERELVAAISYSGTSTYYADSVKGRFTISRDNAKNTVYLQMNSLKPEVTAVYYCNAGRYIKMGDWGQGSQVTVSS | high polyreactivity
33 | QVQLVESGGGLVQAGGSLRLSCAASGGTFGYNAMGWYRQAPWKERELVAAISSGGRTYYADSVKGRFTISRDNAKNTVYLQMNSLKPEDTAVYYCNARKGLYYGGRYDYWGQGTQVTVSS | high polyreactivity
34 | QVQLVESGGGLVQAGGSLRLSCAASGGTFGYYAMGWYRQAPGKERELVAAITSGGSTNYADSVKGRFTISRDNAKNTVYLQMNSLKPEDTAVYYCAARYINRYPKAQPTDRSIYYWGQGTQVTVSS | high polyreactivity
35 | QVQLVESGGGLVQAGGSLRLSCAASGGTFHGYAMGWYRQAPGKERELVAAINWSGTSTYYADSVKGRFTISRDNAKNTVYLQMNRLKPEDTAVYYCAAAYFRGTYYYWGQGTQVTVSS | high polyreactivity
36 | QVQLVESGGGLVQAGGSLRLSCAASGGTFKANAMGWYRQAPGKERELVAAIRQTGGSTYYADSVKGRFTISRDNAKNTVYLQMNSLKPEDTAVYYCAAQSHRYCIYDYWGQGTQVTVSS | high polyreactivity
37 | QVQLVESGGGLVQAGGSLRLSCAASGGTFKFFAMGLYRQAPGKERELVAAITSGGSTNYADSVKGRFTISRDNAKNTVYLQMNRLKPEDTAVYYCAVDSLPNSPYDYWGQGTQVTVSS | low polyreactivity
38 | QVQLVESGGGLVQAGGSLRLSCAASGGTFLGNAMGWYRPAPGKERELVADITSGGSTNYADSVKGRFTISRDNAKNTVYLQMNSLKPEDTAVYYCNAEYSTSTVWEYDYWGQGTQVTVSS | low polyreactivity
39 | QVQLVESGGGLVQAGGSLRLSCAASGGTFLSNAMGWYRQAPGKERELVASISWGGGSTTYADSVKGRFTISRDNAKNTVYLQMNSLKPEDTAVYYCNALDGPGYYVDYDYWGQGTQVTVSS | low polyreactivity
40 | QVQLVESGGGLVQAGGSLRLSCAASGGTFLVNAMGWYRQAPGKERELVATITARVGSTYYADSVKGRFTISRDNAKNTVYLQMNSLKPEDTADYYCAAYPQLWYWDYNYWGQGTQVTVSS | high polyreactivity
41 | QVQLVESGGGLVQAGGSLRLSCAASGGTFLVNAMGWYRQSPGKEREWVATITARVASTYYADSVTGRFTISRDNAKNTVYLQMNTLKPEDTAVYYCAARKVWGYTYGYPYYYWGQATQVTVSS | high polyreactivity
42 | QVQLVESGGGLVQAGGSLRLSCAASGGTFLVYAMGWYRQAPGKERELVAAITRSGGSTYYADSVKGRFTISRDNAKNTVYLQMNSLKPEDTAVYYCNARYRNSGRYWDWYYYWGQGTQVTVSS | high polyreactivity
43 | QVQLVESGGGLVQAGGSLRLSCAASGGTFLYYAMGWYRQAPGKERELVAAISRGGSTHYADSVKGRFTISRDNAKNTVYLQMNSLKPEDTAVYYCAADRSHRKRINFYDYWGQGTQVTVSS | low polyreactivity
